The record followed here is PMC3637500.

The chains are these.
B1: Myc-tagged full-length Gab1 (wild type) [mouse] / GST-PTP1B-D181A (substrate-trapping mutant of PTP1B, GST fusion protein) [mouse] (parent)
chain 1: MSGGEVVCSGWLRKSPPEKKLKRYAWKRRWFVLRSGRLTGDPDVLEYYKNDHAKKPIRIIDLNLCQQVDAGLTFNKKEFENSYIFDINTIDRIFYLVADSEEDMNKWVRCICDICGFNPTEEDPVKPLTGSSQAPVDSPFAISTAPASSQMEASSVALPPPYQVISLPPHPDTLGLQDDPQDYLLLINCQSKKPEPNRTLFDSAKPTFSETDCNDNVPSHQTPASSQSKHGMNGFFQQQMMYDCPPSRLTSVSGESSLYNLPRSYSHDVLPKESPSSTEADGELYTFNTPSGTAGVETQMRHVSISYDIPPTPGNTYQIPRTFPESTLGQSSKLDTIPDIPPPRPPKPHPTHDRSPVETCGVPRTASDTDSSYCIPPPAGMTPSRSNTISTVDLNKLRKDASSQDCYDIPRTFPSDRSSSLEGFHSQYKIKSVLTAGGVSGEELDENYVPMNPNSPPRQHSGSFTEPIQEPNYVPMTPGTFDFSSFGMQVPPPAHMGFRSSPKTPPRRPVPVADCEPPPVDRNLKPDRKVKPAPLDIKPLSEWEELQAPVRSPITRSFARDSSRFPMSPRPDSVHSTTSSSDSHDSEENYVPMNPNLSGEDPNLFASNSLDGGSSPMNKPKGDKQVEYLDLDLDSGKSTPPRKQKSSGSGSSMADERVDYVVVDQQKTLALKSTREAWTDGRQSTESETPTKNVK
chain 2: MEMEKEFEEIDKAGNWAAIYQDIRHEASDFPCKVAKLPKNKNRNRYRDVSPFDHSRIKLHQEDNDYINASLIKMEEAQRSYILTQGPLPNTCGHFWEMVWEQKSRGVVMLNRIMEKGSLKCAQYWPQQEEKEMVFDDTGLKLTLISEDVKSYYTVRQLELENLTTKETREILHFHYTTWPAFGVPESPASFLNFLFKVRESGSLSLEHGPIVVHCSAGIGRSGTFCLADTCLLLMDKRKDPSSVDIKKVLLEMRRFRMGLIQTADQLRFSYLAVIEGAKFIMGDSSVQDQWKELSREDLDLPPEHVPPPPRPPKRTLEPHNGKCKELFSSHQWVSEETCGDEDSLAREEGRAQSSAMHSVSSMSPDTEVRRRMVGGGLQSAQASVPTEEELSSTEEEHKAHWPSHWKPFLVNVCMATLLATGAYLCYRVCFH

This test covers variants of B1. Briefly: GST pull-down, anti-Myc immunoblot densitometry. Particulars: with GST-PTP1B-D181A (substrate-trapping mutant of PTP1B, GST fusion protein) [mouse]; Gab1 expressed in HEK-293 T cells, pervanadate treatment; normalized to lysate loading control; parent: 100; read off a plot. Background: A western blot detects proteins with antibodies after separation by electrophoresis.
chain 1 Y285F: the percent of parent is 180%. Under chain 1 Y660F stands 150%; under chain 1 Y407F, 160%.

As to chain 1 Y373F, the percent of parent was determined as 200%. Under chain 1 Y590F stands 310%; under chain 1 Y448F, 170%.

As to chain 1 Y473F, the percent of parent is 270%. Then chain 1 Y628F, with 240%.
